Source: patent publication US20160368980A1, “INHIBITION OF GRANULOCYTE COLONY STIMULATING FACTOR IN THE TREATMENT OF CANCER” (STC.UNM, priority 2014, published 2016)

B1: G-CSF: recombinant G-CSF (eBioscience), pro-inflammatory cytokine (protein, UniProt P09920 31-208, looked up)
Granulocyte …: VPLVTVSALPPSLPLPRSFLLKSLEQVRKIQASGSVLLEQLCATYKLCHPEELVLLGHSLGIPKASLSGCSSQALQQTQCLSQLHSGLCLYQGLLQALSGISPALAPTLDLLQLDVANFATTIWQQMENLGVAPTVQPTQSAMPAFTSAFQRRAGGVLAISYLQGFLETARLALHHLA

Tests used:
Assay type in all cases: cell-based, human
MKN-45 and Caco-2 cells [1] = assay: Aldefluor / CD44 staining of stem-like population by flow cytometry; conditions: for effect on G-CSF-induced stem marker expressing cell expansion (aldehyde dehydrogenase high, CD44): treatment with ERK1/2 or RSK inhibitor before G-CSF
Method: (§1) Flow Cytometry: Single-and multi-color immunostaining was performed according to standard surface and intracellular FACS staining Biolegend protocols (Biolegend, San Diego, Calif.). Anti-Ep-cam Alexa-Fluor 488 (Biolegend 9c4) was used for identification of epithelial cells. The purity of MF was analyzed by staining for CD90-PE (Biolegend Thyl) and α-smooth actin-FITC (R&D Systems 1C14206) for flow cytometry compared to isotype controls. Anti-G-CSFR-PE (clone 1 mm 741 Biolegend) and G-CSF-FITC (clone 85FSCSF eBioscience) were used for the analysis of G-CSFR surface expression and intracellular G-CSF after 4 hour exposure to Brefeldin A compared to isotype controls. Anti-proliferating cell nuclear antigen (PCNA) (clone PCNA01, Biolegend) was used as a proliferation marker. Cancer stem-like populations in carcinoma cell lines were examined by staining with Aldefluor (Stem Cell Technologies, Vancouver, BC) and anti-CD44-APC (Biolegend clone BJ18) using the manufacturer's Aldefluor staining protocol compared to isotype control. All samples were analyzed on a Guava easyCyte 8HT flow cytometer (Millipore, Bellerica, Md.), and analyzed using FCS Express software (DeNovo Software, Los Angeles, Calif.).
Therefore, assessment of MKN-45 and Caco-2 cells for a similar population was undertaken. […] Cells were also stained with CD44, since in gastric and colon cancers CD44 has also been shown on cells with stem-like features (Huang et al., 2009; Katsuno et al., 2012; Su et al., 2011b; Takaishi et al., 2009; Wakamatsu et al., 2012). To examine Aldefluor staining, cells were gated on the CD44 positive population. Then, another gate was set using the diethylaminobenzaldehyde (DEAB) inhibitor of aldehyde dehydrogenase as a negative control (FIG. 5A). […] G-CSF treatment expanded this population from 6% to 16% of the cell population (FIGS. 5C). Further, 48 hour treatment of MKN-45 and Caco-2 cells with 10 ng/ml of G-CSF led to an approximately 10% increase in the stem-like Aldefluor^highCD44^+population (FIG. 5D) with both cell types.
In parallel, ERK1/2 and RSK inhibition were also examined for effects on stem-like populations.

[2] = test system: MKN-45 and Caco-2 carcinoma cells; assay: G-CSF induced proliferation (CyQuant) with ERK1/2 or RSK inhibitors; conditions: 10 μM inhibitor, 30 min before recombinant G-CSF
Method: Proliferation: MKN-45, AGS, Caco-2 and DLD1 cells (2500 per well) were added to wells of a 96 well plate and incubated with 5-25 ng/ml of recombinant G-CSF (eBioscience) or conditioned media from MF for 48 hours. Conditioned media included a mixture of 50% media from cultured myofibroblasts and 50% fresh media for nutrients. Media from MF was taken when cells were 80% or greater confluent before passage (from approximately 1×10^6 cells). Proliferation was measured using CyQuant dye for DNA content (Life Technologies). […] Samples were read on a Tecan fluorescent plate reader (Mannedorf, Switzerland).
However, most of the studies have been performed in myeloid cells or neutrophils. Thus, we sought to examine G-CSFR signaling in MKN-45 and Caco-2 cells. […] Cells were lysed and protein levels normalized. […] A 5-fold increase in phosphorylation was found in MKN-45 and a 10-fold increase in phosphorylation was found in Caco-2 cells (FIGS. 6A and B). […] ERK1/2 or RSK inhibitors were added to some wells of cells before addition of G-CSF, and proliferation examined by CyQuant proliferation assay for DNA content.

MKN-45 and Caco-2 cells [3] = assay: Fluoroblok migration assay (8 micron pores, CFSE-labeled cells); conditions: 10 ng/ml G-CSF in bottom wells, 4 hours
Method: Migration: MKN-45 and Caco-2 cells were stained with carboxyfluorein succinimidyl ester (CFSE) (Life Technologies) and added to the top of Fluoroblok 96 well plates with […]. Serum free media, media with 10% FBS, recombinant G-CSF, or MF supernatants were added to the bottom of the wells. G-CSF neutralizing antibodies (1 μg/ml) were added to some cultures. The fluorescence of migrated cells was measured after 4 hours of incubation at 37° C. on a Tecan plate reader.
Given the ability of G-CSF to mobilize bone marrow derived hematopoietic cells during systemic administration (Held and Gundert-Remy, 2010), we assessed whether it could increase the migratory ability, and therefore the malignant potential, of gastric and colon cancer cells. MKN-45 and Caco-2 were serum starved overnight, fluorescently labeled with CFSE, and plated on FluorBlok™ plates with 8 micron pores and serum free media in the top of the wells. The bottom wells were filled with serum free media, serum free media containing 10 ng/ml of G-CSF or serum containing media (positive control). […] Both cell types migrated through the pores toward serum as a positive control, and at even higher rates toward G-CSF. […]

[4] = test system: ERK1/2 and RSK1 phosphorylation in Caco-2 cells; assay: Luminex signaling bead array, ERK1/2 and RSK1 phosphorylation, Caco-2; conditions: recombinant G-CSF 10 ng/ml
Method: (§2) Luminex Arrays: G-CSF levels were measured in cell culture supernatants by singleplex fluorescent bead based array (Life Technologies) according to manufacturer's instructions. ERK1/2 and RSK phosphorylation were measured by Milliplex MAPmates phospho-ERK1/2 and RSK arrays (EMD Millipore, Billerica Mass.) according to the manufacturer protocol. All samples were analyzed on a Luminex 200 machine.
(§3) Some studies have shown that G-CSFR signaling induces signaling pathways that lead to cell proliferation (Kamezaki et aL, 2005; Wang et al., 2008). However, most of the studies have been performed in myeloid cells or neutrophils. Thus, we sought to examine G-CSFR signaling in MKN-45 and Caco-2 cells. Cells were pre-incubated with serum free media for 2 hours before treatments and recombinant G-CSF (10 ng/ml) was added to wells in 15 min intervals. Cells were lysed and protein levels normalized. […] A 5-fold increase in phosphorylation was found in MKN-45 and a 10-fold increase in phosphorylation was found in Caco-2 cells (FIGS. 6A and B). […] Since we found phosphorylation of these signaling molecules after G-CSF treatment, we further sought to characterize the role of these pathways in the increased cell proliferation resulting from G-CSF treatment observed in MKN-45 and Caco-2 carcinoma cells shown in FIG. 3. […]

[5] = test system: Caco-2 and DLD1 colon carcinoma cells; assay: CyQuant proliferation assay for DNA content, colon carcinoma cells; conditions: recombinant G-CSF 5-25 ng/ml, after 4 days, Caco-2 and DLD1, dose dependent
Method: (§4) Proliferation: MKN-45, AGS, Caco-2 and DLD1 cells (2500 per well) were added to wells of a 96 well plate and incubated with 5-25 ng/ml of recombinant G-CSF (eBioscience) or conditioned media from MF for 48 hours. Conditioned media included a mixture of 50% media from cultured myofibroblasts and 50% fresh media for nutrients. Media from MF was taken when cells were 80% or greater confluent before passage (from approximately 1×10^6 cells). Proliferation was measured using CyQuant dye for DNA content (Life Technologies). Other samples were incubated with 10 μM ERK activation inhibitor peptide 1 or RSK inhibitor SL0101 (EMD Millipore) for 30 min before addition of recombinant G-CSF. Samples were read on a Tecan fluorescent plate reader (Mannedorf, Switzerland).
(§5) MKN-45 and AGS gastric carcinoma cells and Caco-2 and DLD1 colon carcinoma cells were incubated with increasing doses of recombinant G-CSF (5-25 ng/ml), which were chosen based on reports of serum concentrations in patients (Morstyn et al., 1989). After 4 days (approximately 2 doubling times), proliferation was measured using the CyQuant fluorescent proliferation assay for DNA content. G-CSF treated cells were compared to untreated control cells. […] To further confirm G-CSF induction of cell proliferation, G-CSF treated cells were stained intracellularly for proliferating cell nuclear antigen (PCNA). […]

[6] = test system: ERK1/2 and RSK1 phosphorylation in MKN-45 cells; assay: Luminex signaling bead array, ERK1/2 and RSK1 phosphorylation, MKN-45; conditions: recombinant G-CSF 10 ng/ml
Method: as §2, §3

[7] = test system: MKN-45 and AGS gastric carcinoma cells; assay: CyQuant proliferation assay for DNA content, gastric carcinoma cells; conditions: recombinant G-CSF 5-25 ng/ml, after 4 days, dose dependent
Method: as §4, §5

[8] = test system: gastric and colon carcinoma cells; assay: Intracellular PCNA staining by flow cytometry; conditions: G-CSF treated cells, both cell types
Method: as §1, with “Cancer stem-like populations in carcinoma cell lines were examined by staining with Aldefluor (Stem Cell Technologies, Vancouver, BC) and anti-CD44-APC (Biolegend clone BJ18) using the manufacturer's Aldefluor staining protocol compared to isotype control.” left out
MKN-45 and AGS gastric carcinoma cells and Caco-2 and DLD1 colon carcinoma cells were incubated with increasing doses of recombinant G-CSF (5-25 ng/ml), which were chosen based on reports of serum concentrations in patients (Morstyn et al., 1989). After 4 days (approximately 2 doubling times), proliferation was measured using the CyQuant fluorescent proliferation assay for DNA content. […]

Molecule | effect on G-CSF-induced stem marker expressing cell expansion (aldehyde dehydrogenase high, CD44) (MKN-45 and Caco-2 cells [1]) | effect on G-CSF induced proliferation [2] | increased migration compared to serum containing media (MKN-45 and Caco-2 cells [3]) | increased migration compared to serum free media (MKN-45 and Caco-2 cells [3]) | increase in the stem-like Aldefluor high CD44+ population (MKN-45 and Caco-2 cells [1]; 48 hour treatment, 10 ng/ml G-CSF, MKN-45 and Caco-2 (both cell types)) | stem-like Aldefluor population, share of the cell population after G-CSF treatment (MKN-45 and Caco-2 cells [1]; MKN-45, gated on CD44 positive, untreated 6%) | increase in ERK1/2 and RSK1 phosphorylation [4] | incubation time of peak ERK1/2 and RSK1 phosphorylation [4] | increase in proliferation compared to untreated cells [5] | increase in ERK1/2 and RSK1 phosphorylation [6] | incubation time of peak ERK1/2 and RSK1 phosphorylation [6] | increase in proliferation compared to untreated cells [7] | increase in PCNA staining compared to untreated cells [8]
CC(=O)O[C@@H]1[C@@H](OC(C)=O)[C@@H](O)[C@H](Oc2c(-c3ccc(O)cc3)oc3cc(O)cc(O)c3c2=O)O[C@H]1C [RSK inhibitor, SL0101, reference compound] | completely abrogated | drastically inhibited | – | – | – | – | – | – | – | – | – | – | –
ERK activation inhibitor peptide 1 [ERK1/2 inhibitor, reference compound] | completely abrogated | drastically inhibited | – | – | – | – | – | – | – | – | – | – | –
B1 | – | – | 1.5 fold | ≤ 4 fold | approximately 10% | 16% | 10 fold | 30 min | up to 4.5 fold | 5 fold | 30 min | ≤ 2.5 fold | greater than 2 fold
